Reference: article PMC3710364

Tests used:
[1] = target: T1, TIAR RRM12S (UniProt Q01085 8-175); experiment: SPR
T1 sequence: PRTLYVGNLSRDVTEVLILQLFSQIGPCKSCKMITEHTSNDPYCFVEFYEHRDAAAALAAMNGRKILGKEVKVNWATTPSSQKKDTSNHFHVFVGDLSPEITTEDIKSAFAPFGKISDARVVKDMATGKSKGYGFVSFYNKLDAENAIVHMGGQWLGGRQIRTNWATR

[2] = target: T2, TIAR RRM2L (UniProt Q01085 94-181); experiment: SPR
T2 sequence: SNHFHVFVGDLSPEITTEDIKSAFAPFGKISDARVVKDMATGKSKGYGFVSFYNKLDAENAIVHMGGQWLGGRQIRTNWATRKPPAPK

[3] = target: T3, TIAR RRM1 (UniProt Q01085 1-94); experiment: SPR
T3 sequence: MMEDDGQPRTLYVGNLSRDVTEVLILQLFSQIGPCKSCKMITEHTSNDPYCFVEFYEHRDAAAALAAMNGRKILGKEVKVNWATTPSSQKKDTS

[4] = target: T2, TIAR RRM2L; experiment: NMR

Work on TTTTTTTTTTTTTTTTTTTT (ssDNA) [T-rich DNA] yielded a Kd [1] of 314 ± 2 nM and a Kd [2] of 66 ± 3 nM.

For GGGGGGUUUUUUUUUUUUUUUUUGGGGG (ssRNA) [U-rich RNA], the binding result [3] was “no binding” and the Kd [2] was 200 ± 6 nM.

UUAUUU (ssRNA) [6-nt AU-rich RNA]: binds [4].
